Assay results from patent US12006519B2, “Polymerase mutants and use with 3′-OH unblocked reversible terminators” (Agilent Technologies, Inc., priority 2021, dated 2024).

Experiments:
Assay type in all cases: biochemical
Lightning Terminators [1] = test: Plate-based assay, incorporation of Lightning Terminators by control extracts; settings: for Utilization of Lightning Terminators (in words): control extracts, FIG. 6, FIGS. 7A-7B
Procedure: (§1) In this example, additional mutant polymerases were derived from Pfu polymerase. To generate the mutants, eighty-seven codons in the Pfu pol B gene were saturated using the QuikChange Lightning Mutagenesis kit and oligonucleotides containing “NDT” codons to create R, N, D, C, G, H, I, L, F, S, Y, and V substitutions with equal frequency. In some cases, mutants missing from NDT libraries were prepared in a separate QuikChange reaction with an equimolar mixture of mutagenic oligos encoding the remaining mutations (A, T, K, Q, E, P, […], W). Thirty-two clones were randomly selected from each QuikChange library (with the exception of T267, Y403, Y410, I475, G499 and K675 libraries which generated fewer transformants). Bacterial lysates were prepared and screened for incorporation of LTA and LTC using a plate-based assay with immobilized primer-templates. A limited number of mutants were also screened for utilization of LTG and LTU (similar trends; data not shown). After washing and UV cleavage (to minimize dye quenching effects), plates were read and fluorescent signals compared to Pfu controls. The following table identifies four mutant Pfu polymerases that served as controls, which were given the arbitrary names Pfu5, Pfu1, and Pfu2, along with Pfu10 (which is discussed above).
Selected lysates, based on screening results, were submitted for sequencing, and an amino acid identification was made based on the selections. […] As shown in Example 3, K477W benefits sequencing by increasing the fraction of full-length reads.

Lightning Terminators [2] = test: Sequencing-by-synthesis with Lightning Terminators (87 cycles); set-up: ARL (87 cycles) / Lead + Lag / Leading / Lagging: unit not given here
Procedure, shortened: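 Mutant 9°N-family DNA polymerases (Therminator; JDF3 and Pfu carrying D141A/E143A/A485L) run in sequencing-by-synthesis on a breadboard instrument with 3′-OH unblocked Lightning Terminators, 87 cycles. Metrics include Lead+Lag dephasing, i.e. reading next- or previous-base signal from imperfect terminator incorporation.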

LTC = test: Plate-based assay with immobilized primer-templates, incorporation of LTC; settings: FIG. 6
Procedure: as §1

E. coli DNA library = test: Sequencing with Lightning Terminators, E. coli DNA library (120 cycles)
Procedure: (§2) This section generally describes how the present mutant polymerases were used for sequencing-by-synthesis, and how their performance in sequencing was measured. Sequencing was performed on a breadboard instrument, essentially as described in Hertzog D, et al., “A high-performance, low-cost approach to next-generation sequencing”, BioOptics World. 2011 Issue November/December 2011.
(§3) In this example, a variety of mutations were introduced into Pfu10 by multi-site mutagenesis or into Pfu A486L/Y546H by domain substitutions to explore an acceptable degree of reduced identity and identify other mutant Pfu polymerases containing L486, F494, H546, and W477. […] Pfu10 and Pfu10-N12 were evaluated for performance in sequencing with Lightning Terminators, as described above.

dATP = test: Template-independent DNA synthesis assay with dATP (terminal transferase activity)
Procedure: The template-independent DNA synthesis reactions employed 7.5 U TdT (Promega) or 180 nM (3×over primer) Pfu26 (D141A/E143A/A486L/Y546H/K477W/L409Y) or Pfu48 (D141A/E143A/A486R/Y546H/K477W/L409Y). Varying concentrations of dATP were added to 2 μM (TdT) or 60 nM (Pfu) T7 FOR primer (6′Fam […]) (SEQ ID NO:6) in duplicate reactions containing 1×TdT buffer with CoCl2(Promega) or 1×ThermoPol buffer (NEB). Reactions were incubated for 30 min. at 37° C. (TdT) or 60° C. (Pfu), and then inactivated with heat (TdT; 10 min. at 70° C.) or EDTA (1 ul 500 uM EDTA). Reaction products were exposed to UV using a Stratalinker (15-watt bulbs, […], 10 min). Reactions were diluted in water (TdT, 1:333; Pfu, 1:10) and 1 μl (TdT) or 0.5 μl (Pfu) aliquots were brought up to 10 μl with HiDI/LIZ 120 Size Standard. Products were heated at 95° C. for 5 min., cooled on ice for 2 min., and then analyzed on an ABI 3500 capillary electrophoresis system ([…] capillary, filter set #5, assay=GE5 LIZ120).
Terminal transferase activity was measured by the number of template-independent dATP additions. Results are shown for TdT in FIG. 9A, for Pfu26 in FIG. 9B and for Pfu48 in FIG. 9C.

Human DNA library = test: Sequencing with Lightning Terminators, Human DNA library (120 cycles); settings: Human DNA library
Procedure: as §2, §3

[3] = alternative polymerases (D141A/E143A), same protein concentrations (0.02 ug/uL in cycle 1 and 0.002 ug/uL in cycles 2-n)

B1: Pfu2: Pfu DNA polymerase with D141A/E143A/A486L/Y546H (protein, UniProt P61875 1-775, looked up, variant D141A E143A A486L Y546H)
DNA polymerase: MILDVDYITEEGKPVIRLFKKENGKFKIEHDRTFRPYIYALLRDDSKIEEVKKITGERHGKIVRIVDVEKVEKKFLGKPITVWKLYLEHPQDVPTIREKVREHPAVVDIFEYDIPFAKRYLIDKGLIPMEGEEELKILAFAIATLYHEGEEFGKGPIIMISYADENEAKVITWKNIDLPYVEVVSSEREMIKRFLRIIREKDPDIIVTYNGDSFDFPYLAKRAEKLGIKLTIGRDGSEPKMQRIGDMTAVEVKGRIHFDLYHVITRTINLPTYTLEAVYEAIFGKPKEKVYADEIAKAWESGENLERVAKYSMEDAKATYELGKEFLPMEIQLSRLVGQPLWDVSRSSTGNLVEWFLLRKAYERNEVAPNKPSEEEYQRRLRESYTGGFVKEPEKGLWENIVYLDFRALYPSIIITHNVSPDTLNLEGCKNYDIAPQVGHKFCKDIPGFIPSLLGHLLEERQKIKTKMKETQDPIEKILLDYRQKLIKLLANSFYGYYGYAKARWYCKECAESVTAWGRKYIELVWKELEEKFGFKVLYIDTDGLHATIPGGESEEIKKKALEFVKYINSKLPGLLELEYEGFYKRGFFVTKKRYAVIDEEGKVITRGLEIVRRDWSEIAKETQARVLETILKHGDVEEAVRIVKEVIQKLANYEIPPEKLAIYEQITRPLHEYKAIGPHVAVAKKLAAKGVKIKPGMVIGYIVLRGDGPISNRAILAEEYDPKKHKYDAEYYIENQVLPAVLRILEGFGYRKEDLRYQKTRQVGLTSWLNIKKS
Lightning Terminators [1]
  Utilization of Lightning Terminators (in words): could utilize Lightning Terminators
Lightning Terminators [2]
  Sequencing performance with Lightning Terminators (in words): nearly identical to Therminator
Lightning Terminators [2]; [3]
  % reads >85: 49.7%
  ARL (87 cycles): 75.3
  Lead + Lag: 1.3
LTC
  Incorporation of LTC (in words): maximize incorporation of LTC

B2: Pfu10: Pfu D141A/E143A/K477W/A486L/Y546H, SEQ ID NO:2 (protein)
chain: MILDVDYITEEGKPVIRLFKKENGKFKIEHDRTFRPYIYALLRDDSKIEEVKKITGERHGKIVRIVDVEKVEKKFLGKPITVWKLYLEHPQDVPTIREKVREHPAVVDIFEYDIPFAKRYLIDKGLIPMEGEEELKILAFAIATLYHEGEEFGKGPIIMISYADENEAKVITWKNIDLPYVEVVSSEREMIKRFLRIIREKDPDIIVTYNGDSFDFPYLAKRAEKLGIKLTIGRDGSEPKMQRIGDMTAVEVKGRIHFDLYHVITRTINLPTYTLEAVYEAIFGKPKEKVYADEIAKAWESGENLERVAKYSMEDAKATYELGKEFLPMEIQLSRLVGQPLWDVSRSSTGNLVEWFLLRKAYERNEVAPNKPSEEEYQRRLRESYTGGFVKEPEKGLWENIVYLDFRALYPSIIITHNVSPDTLNLEGCKNYDIAPQVGHKFCKDIPGFIPSLLGHLLEERQKIKTKMKETQDPIEWILLDYRQKLIKLLANSFYGYYGYAKARWYCKECAESVTAWGRKYIELVWKELEEKFGFKVLYIDTDGLHATIPGGESEEIKKKALEFVKYINSKLPGLLELEYEGFYKRGFFVTKKRYAVIDEEGKVITRGLEIVRRDWSEIAKETQARVLETILKHGDVEEAVRIVKEVIQKLANYEIPPEKLAIYEQITRPLHEYKAIGPHVAVAKKLAAKGVKIKPGMVIGYIVLRGDGPISNRAILAEEYDPKKHKYDAEYYIENQVLPAVLRILEGFGYRKEDLRYQKTRQVGLTSWLNIKKS
modifications: Mutant of Pyrococcus furiosus Polymerase
Lightning Terminators [1]; K477W, or final fluorescence due to tryptophan quenching
  Effect on LTA and LTU incorporation (in words): negative impact on LTA and LTU incorporation
Lightning Terminators [1]
  Utilization of Lightning Terminators (in words): could utilize Lightning Terminators
E. coli DNA library
  % reads >85: 79.9%
  ARL (120 cycles): 92.3
  FracQ30: 0.63
  Lead + Lag: 0.8
dATP
  Non-templated dA-addition (terminal transferase activity): fail to perform non-templated dA-addition
Human DNA library
  % reads >85: 92.0%
  ARL (120 cycles): 109.7
  FracQ30: 0.65
  Lead + Lag: 1.1
Lightning Terminators [2]
  Sequencing performance with Lightning Terminators (in words): improved sequencing enzyme
Lightning Terminators [2]; Example 3
  % reads >85 bp: 69.5%
  FracQ30: 0.62
  Lagging: 0.66
  Leading: 0.24
Lightning Terminators [2]; Example 3, Therminator 110 runs, Pfu10 12 runs
  ARL (87 cycles): 80.4
LTC
  Incorporation of LTC (in words): maximize incorporation of LTC
